The labels stand for the following.
B1: MBP^160–201 (domain or fragment)
chain: not shown
B2: MBP^198–265 (domain or fragment)
chain: not shown
B3: MBP^67–99 (domain or fragment)
chain: not shown
B4: triple mutant SecB (SecB™), V40A/L42A/L44A (natural protein)
chain: MSEQNNTEMTFQIQRIYTKDISFEAPNAPHVFQKDWQPEAKADADTASSQLADDVYEVVLRVTVTASLGEETAFLCEVQQGGIFSIAGIEGTQMAHCLGAYCPNILFPYARECITSMVSRGTFPQLNLAPVNFDALFMNYLQQQAGEGTEEHQ
B5: MBP^331–396 (domain or fragment)
chain: not shown
B6: MBP^29–99 (domain or fragment)
chain: not shown
B7: MBP^260–336 (domain or fragment)
chain: not shown
B8: MBP^97–164 (domain or fragment)
chain: not shown
B9: SecB (natural protein)
chain: MSEQNNTEMTFQIQRIYTKDISFEAPNAPHVFQKDWQPEVKLDLDTASSQLADDVYEVVLRVTVTASLGEETAFLCEVQQGGIFSIAGIEGTQMAHCLGAYCPNILFPYARECITSMVSRGTFPQLNLAPVNFDALFMNYLQQQAGEGTEEHQDA

The target in the data set “SecB” is B9. The experiment in a line: NMR titration.
Data set [1] addresses T1, alkaline phosphatase (PhoA) (E. coli, UniProt P00634 1-471 = phosphatase). The experiment in a line: ITC. For orientation: In ITC the heat of successive injections is recorded.
Data set [2] addresses T1, alkaline phosphatase (PhoA). The experiment in a line: SEC-MALS.
The target of data set [3] is maltose binding protein (MBP), MBP^1–396 (E. coli, UniProt P0AEX9 1-396 = MBP). The experiment in a line: SEC-MALS. (In general: Size exclusion chromatography separates by hydrodynamic size, large species first.)
The data set “NMR structure” deals with the molecule itself. Put plainly: NMR structure.

As to B1, the binding result with SecB is “binds”.

B2: the binding result with SecB is given as “binds”.

For B3, in the data set with SecB, the binding result is given as “binds”.

Consider B4, for which the “fold reduction in affinity against wild type SecB” value in data set [1] turned out to be 40 fold.

B5: in the data set with SecB, the binding result is given as “binds”.

In the case of B6, in the data set with SecB, the binding result is “binds”.

Take B7: the binding result with SecB is “binds”.

For B8, the binding result in the data set with SecB is reported as “binds”.

Turning to B9, the entries for the “stoichiometry N” value in data set [2] and in data set [3] were 1 SecB:PhoA and 1 SecB:MBP, respectively. In addition, the binding result in the data set “NMR structure” is “binds”.

Source of the values: publication PMC5161705 (Nature, 2016).
